From paper PMC5490839 (Nature immunology, 2016)
Where no end group is shown, it is not given here.

Target: T1, Zap70 D461N-tagged (Myc- or hemagglutinin-tagged, kinase-inactive Zap70) (human, UniProt P43403 1-619, D461N)
T1 sequence (looked up): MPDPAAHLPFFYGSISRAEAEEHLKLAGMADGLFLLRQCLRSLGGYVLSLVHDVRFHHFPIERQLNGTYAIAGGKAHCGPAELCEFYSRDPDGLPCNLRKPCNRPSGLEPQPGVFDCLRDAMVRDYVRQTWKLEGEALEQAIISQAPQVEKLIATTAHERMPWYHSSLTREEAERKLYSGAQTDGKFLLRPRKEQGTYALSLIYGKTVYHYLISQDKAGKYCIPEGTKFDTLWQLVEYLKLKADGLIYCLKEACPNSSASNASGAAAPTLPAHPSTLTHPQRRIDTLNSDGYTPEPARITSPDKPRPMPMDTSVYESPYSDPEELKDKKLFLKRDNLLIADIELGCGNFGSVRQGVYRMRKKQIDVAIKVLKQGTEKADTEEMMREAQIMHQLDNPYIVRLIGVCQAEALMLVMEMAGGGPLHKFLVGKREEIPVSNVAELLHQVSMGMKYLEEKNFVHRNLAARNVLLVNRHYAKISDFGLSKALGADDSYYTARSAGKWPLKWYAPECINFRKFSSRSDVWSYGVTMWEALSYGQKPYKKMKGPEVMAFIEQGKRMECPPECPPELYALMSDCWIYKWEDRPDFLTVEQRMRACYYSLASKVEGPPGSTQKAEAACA
Test: ELISA

## GGAGQDGVRQSRASDKQTLLPNDQLYQPLKDREDDQYSHLQGNQLRRN (domain or fragment, also: ITAM phosphorylated by Lck, sites not given here, GST fusion)
  binding result: binds
